Tests used:
Conditions in all cases: remark: other sources report otherwise
[1] = target: T1, pyrene-labeled ADP-actin filaments (chicken breast muscle actin) (chicken), P68139; assay: stopped-flow fluorescence kinetics
[2] = target: T1, pyrene-labeled ADP-actin filaments …; assay: other fluorescence titration
[3] = target: Mg-ATP-actin monomer (chicken breast muscle actin) (chicken), P68139; assay: inhibition of nucleotide exchange
[4] = target: T1, pyrene-labeled ADP-actin filaments …; assay: other fluorescence titration; remark: listed apart in the source

kobs (3 µM cofilin, 1 µM filaments) [1]: 73.6 s⁻¹
kon [1]: 1.25e+07 M⁻¹ s⁻¹
Kd [2]: 340 nM
Kd [3]: 80 nM
Ka of the cooperative model (Kd = 1/(ω*Ka)) [4]: 0.15 µM⁻¹
Kd [4]: 330 nM
binding cooperativity ω [4]: 19.9
B1: wild-type fission yeast cofilin, P78929 1-137 (natural protein)
chain: MSFSGVKVSPECLEAFQELKLGKSLRYVVFKMNDTKTEIVVEKKSTDKDFDTFLGDLPEKDCRYAIYDFEFNLGEGVRNKIIFISWSPDVAPIKSKMVYSSSKDTLRRAFTGIGTDIQATDFSEVAYETVLEKVTRK
modifications: here or on the partner: pyrene (pyrene iodoacetamide) on cysteine-374

Reference: article PMC3206353
